Biological target: calcitonin receptor (bovine (endogenous in bovine articular cartilage explants))

share of CTR-positive cells (immunohistochemistry) in the deep layer of T3-induced explants after four days of co-stimulation with 1 nM and 10 nM sCT: < 43%
Substance: salmon calcitonin (peptide)

From article PMC3386925
